Source: paper PMC9750858, “Rapid biosensor development using plant hormone receptors as reprogrammable scaffolds” (Nature Biotechnology, 2022)
Like-named read-outs stand apart in the source and are kept apart here.

Target: T1, ABA-PYR1M complex (Arabidopsis thaliana, UniProt O49686, H60P/N90S)
T1 construct: c-myc (display detection tag); expressed in transfected cells; host or cells: yeast (surface display of PYR1^M); the HAB1 variants were recombinant and purified
T1 sequence (O49686 1-191 H60P/N90S): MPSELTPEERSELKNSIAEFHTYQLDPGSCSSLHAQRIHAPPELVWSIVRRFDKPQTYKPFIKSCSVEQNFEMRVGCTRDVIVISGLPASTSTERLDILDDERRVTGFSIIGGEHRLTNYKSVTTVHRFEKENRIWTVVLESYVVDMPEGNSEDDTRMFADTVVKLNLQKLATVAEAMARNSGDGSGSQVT
Test: Yeast surface display titration of HAB1 variants against PYR1^M in the presence of 500 nM ABA
Type: binding
Details: HAB1 variant for the ABA-PYR1M complex, 95% CI in brackets, read-out: KD2
Experimental: For crystallographic structures, PYL2 and ΔN-HAB1^T+ were expressed in E. coli and purified as described previously. Assays for phosphatase activity and apparent Tm, measured via thermal challenge using yeast surface display, were performed essentially as previously described.
(a) Assessment of stabilized, inactivated 6xHis -MBP-ΔN -HAB1 variants. Experiments were repeated on two separat e days using independently generated batches of protein. Error bars indicate 1 SD of 3 measure ments . Sets of mutations f or each variant are noted in Supporting File 1.
MBP-ΔN -HAB1 variants using p-NPP.
HAB1 variants using YSD of PYR1M, in the presence of 500 nM ABA and 20 nM 6xHis -MBP-ΔN -HAB1 variant. The […]
here ref ers to streptavidin -phycoerythrin.
(b) Gating strategy for analysis of data shown in part (a). The f luorescence (a.u.) reported in part (a) is the gated ΔN - HAB 1T+ binding as measured by streptavidin -phycoeryt hrin (SAPE).

B1: WT (636): 6×His–MBP–ΔN-HAB1 (C186S, C274S) (protein)
chain: RSVYELDSIPLWGTVSIQGNRSEMEDAFAVSPHFLKLPIKMLMGDHEGMSPSLTHLTGHFFGVYDGHGGHKVADYCRDRLHFALAEEIERIKDELSKRNTGEGRQVQWDKVFTSCFLTVDGEIEGKIGRAVVGSSDKVLEAVASETVGSTAVVALVCSSHIVVSNCGDSRAVLFRGKEAMPLSVDHKPDREDEYARIENAGGKVIQWQGARVFGVLAMSRSIGDRYLKPYVIPEPEVTFMPRSREDECLILASDGLWDVMNNQEVCEIARRRILMWHKKNGAPPLAERGKGIDPACQAAADYLSMLALQKGSKDNISIIVIDLKAQRKFKTRT
B1 gave a Kd (Biorep 1) of 2.53 nM and a Kd (Biorep 2) of 5.01 nM.
